Data taken from patent US20200353003A1.

Target: BDCA2 antigen (CLEC4C, CD303) expressed on transduced RS4-11 and A95-KK reporter cells (UniProt Q8WTT0)
Assay: cell-based or functional assay

Sequence of UniProt Q8WTT0 (Q8WTT0 whole entry): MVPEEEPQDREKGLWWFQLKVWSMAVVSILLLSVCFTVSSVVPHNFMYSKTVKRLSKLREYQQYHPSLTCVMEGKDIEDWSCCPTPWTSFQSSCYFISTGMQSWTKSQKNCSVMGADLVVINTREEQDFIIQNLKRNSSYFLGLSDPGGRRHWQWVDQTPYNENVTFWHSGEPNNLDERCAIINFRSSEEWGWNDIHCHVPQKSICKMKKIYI

B1: BDCA2 CAR (chimeric antigen receptor specific for BDCA2, with aBDCA2-scFV as binder) (protein, part only; not given: hinge, transmembrane and signaling domains, not shown: another chain or arm of the molecule; a dimerising Fc or GST)
scFv: DIQMTQSPSSVSASVGDRVTITCRASQEISGYLSWYQQKPGKAIKRLIYAASTLDSGVPSRFSGSRSGTDFTLTISSLQSEDFATYYCLQYASYPPTFGGGTKLEIKGGGGSGGGGSGGGGSQVTLKESGPTLVKPTQTLTLTCTFSGFSLSTSGMGVGWIRQPPGKALEWLAHIWWEDDKYYNPSLKSRLTITKDTSKNQVVLTMTNMDPVDTATYYCTRNWDYYTMDYWGQGTTVTVSS
B1 gave a killing of target cells expressing BDCA2 (reporter-BDCA2 and RS4-11-BDCA2) by NK and T cells expressing BDCA2-CAR, flow cytometry based cytotoxic assay, E:T=1:1 of over 70%.
